# Experimental data reported in the Human Domainome abundance scans (Beltran et al. 2025).
# ± gives the uncertainty stated by the source.
# B1: Dynamin-binding protein, residues 242 to 304; numbered along this chain, Q6XZF7 (parent)
# chain: EEPGTYGVALYRFQALEPNELDFEVGDKIRILATLEDGWLEGSLKGRTGIFPYRFVKLCPDTR
# Variants of: B1
# Assay: abundance fitness (aPCA) (normalised: wild type 0, dead -1); higher = more abundant; growth selection in yeast, the domain comes from the species named
# Details: Homo sapiens
row,Variant,abundance fitness
1,E20Y,0.059 ± 0.056
2,N19Q,-0.188 ± 0.23
3,L10K,-0.384 ± 0.21
4,C59L,-0.049 ± 0.067
5,N19I,-0.644 ± 0.087
6,E24W,-0.438 ± 0.15
7,C59F,0.006 ± 0.053
8,L21T,-0.522 ± 0.09
9,D37P,-0.476 ± 0.15
10,L35G,-0.374 ± 0.055
11,K57F,-0.697 ± 0.081
12,I29N,-0.845 ± 0.11
13,I31R,-0.883 ± 0.14
14,P60C,-0.15 ± 0.063
15,L32H,-0.008 ± 0.062
16,P52D,-0.817 ± 0.12
17,V56Q,-0.664 ± 0.22
18,E2Y,0.015 ± 0.056
19,E2D,-0.151 ± 0.066
20,V25D,-0.899 ± 0.12
21,E2Q,-0.498 ± 0.19
22,W39A,-0.56 ± 0.085
23,T34C,-0.323 ± 0.055
24,L44H,-0.425 ± 0.15

row,Variant,abundance fitness
1,L40Y,-0.259 ± 0.061
2,P3Y,0.053 ± 0.07
3,A15S,0.131 ± 0.048
4,P3C,-0.221 ± 0.077
5,L10M,0.048 ± 0.094
6,Y53K,0.251 ± 0.29
7,D61W,-0.195 ± 0.1
8,R54D,-0.052 ± 0.057
9,R47D,-0.743 ± 0.13
10,L16T,0.344 ± 0.062
11,G26K,-0.643 ± 0.39
12,E24V,-0.471 ± 0.06
13,G26V,-0.844 ± 0.086
14,S43E,0.219 ± 0.14
15,K57G,-0.58 ± 0.072
16,P18W,-0.424 ± 0.11
17,I29Y,-0.808 ± 0.12
18,E17W,-0.488 ± 0.14
19,L35M,-0.413 ± 0.19
20,L58M,-0.032 ± 0.1
21,D22K,-0.062 ± 0.16
22,G38S,-0.545 ± 0.07
23,N19Y,-0.299 ± 0.059
24,A15E,-0.734 ± 0.26

row,Variant,abundance fitness
1,E41Q,-0.064 ± 0.14
2,S43D,-0.32 ± 0.069
3,Y6G,-0.696 ± 0.079
4,I29G,-0.738 ± 0.087
5,L40N,-0.784 ± 0.11
6,L10A,-0.761 ± 0.14
7,C59N,-0.393 ± 0.09
8,G7N,-0.719 ± 0.11
9,G7C,0.231 ± 0.045
10,Q14V,-0.115 ± 0.054
11,T48D,-0.818 ± 0.11
12,Q14T,-0.109 ± 0.063
13,T62H,0.044 ± 0.054
14,K57E,-0.6 ± 0.23
15,E17L,-0.011 ± 0.05
16,I50N,-0.43 ± 0.077
17,I50S,-0.541 ± 0.066
18,K57I,-0.576 ± 0.071
19,R30A,-0.155 ± 0.075
20,G42A,-0.702 ± 0.14
21,G46F,-0.687 ± 0.051
22,P3W,-0.19 ± 0.29
23,V25R,-0.223 ± 0.059
24,G4D,-0.004 ± 0.064

row,Variant,abundance fitness
1,E1S,-0.112 ± 0.068
2,F23R,-0.684 ± 0.095
3,Y53Q,0.154 ± 0.18
4,E1K,0.009 ± 0.14
5,Y11V,-0.086 ± 0.049
6,S43M,-0.127 ± 0.13
7,I50L,-0.383 ± 0.061
8,E41G,-0.76 ± 0.11
9,I50T,-0.306 ± 0.082
10,G38W,-1.05 ± 0.28
11,Q14N,-0.198 ± 0.065
12,R47Q,-0.588 ± 0.25
13,G49S,-0.504 ± 0.088
14,L35Y,-0.187 ± 0.059
15,G7P,-0.86 ± 0.25
16,G26D,-0.568 ± 0.091
17,F13W,-0.483 ± 0.23
18,T5W,-0.132 ± 0.13
19,P3K,0.18 ± 0.16
20,T48I,-0.214 ± 0.058
21,F55S,-0.348 ± 0.035
22,E20P,-1.03 ± 0.35
23,T34N,-0.289 ± 0.064
24,L40G,-0.383 ± 0.059

row,Variant,abundance fitness
1,A9I,-0.737 ± 0.097
2,E2G,-0.166 ± 0.054
3,P60I,-0.18 ± 0.06
4,D22I,-0.913 ± 0.11
5,Y53D,0.227 ± 0.053
6,P18A,-0.188 ± 0.063
7,G49M,-0.711 ± 0.4
8,Y53A,0.338 ± 0.079
9,L58Q,-0.656 ± 0.23
10,R12T,-0.237 ± 0.085
11,L10P,-0.7 ± 0.15
12,R63D,0.125 ± 0.087
13,Y11D,-0.281 ± 0.067
14,L16V,0.117 ± 0.05
15,E24G,-0.596 ± 0.073
16,L44Y,-0.393 ± 0.088
17,G42R,-0.84 ± 0.14
18,T34G,-0.481 ± 0.06
19,F51K,-0.623 ± 0.27
20,A33K,0.005 ± 0.12
21,L21S,-0.542 ± 0.078
22,L10H,-0.566 ± 0.12
23,P52L,-0.567 ± 0.097
24,Y6C,-0.502 ± 0.083

row,Variant,abundance fitness
1,L16M,0.242 ± 0.12
2,K28A,-0.7 ± 0.1
3,G26S,-0.674 ± 0.069
4,L40C,0.113 ± 0.048
5,P18K,-0.336 ± 0.17
6,Y11M,-0.024 ± 0.11
7,R54V,-0.07 ± 0.1
8,G26R,-0.866 ± 0.099
9,E17N,0.158 ± 0.054
10,G26Q,-0.061 ± 0.2
11,A9H,-0.967 ± 0.16
12,D22V,-0.682 ± 0.084
13,A33T,-0.009 ± 0.078
14,L32W,-0.784 ± 0.2
15,T34H,0.067 ± 0.054
16,K45A,-0.115 ± 0.077
17,G49W,-0.601 ± 0.35
18,G4Y,-0.044 ± 0.059
19,G46C,-0.719 ± 0.053
20,I50A,-0.379 ± 0.08
21,Y11R,0.206 ± 0.058
22,C59Q,0.117 ± 0.13
23,C59E,-0.109 ± 0.11
24,V8R,-0.302 ± 0.086

row,Variant,abundance fitness
1,T34A,-0.33 ± 0.075
2,E41Y,-0.274 ± 0.072
3,K28M,-0.529 ± 0.19
4,V8A,-0.691 ± 0.13
5,L44P,-0.575 ± 0.23
6,G26T,-0.831 ± 0.14
7,S43Q,-0.133 ± 0.16
8,I29P,-0.35 ± 0.11
9,E2V,-0.228 ± 0.058
10,F13H,0.559 ± 0.059
11,K28H,-0.044 ± 0.087
12,S43R,-0.346 ± 0.076
13,E20V,-0.703 ± 0.086
14,G49N,-0.499 ± 0.094
15,F13R,0.11 ± 0.06
16,D61Y,-0.391 ± 0.057
17,Q14L,-0.265 ± 0.07
18,L40W,-0.473 ± 0.13
19,P18F,-0.659 ± 0.095
20,F23I,-0.165 ± 0.062
21,L16D,0.047 ± 0.063
22,I50R,0.138 ± 0.058
23,I31V,-0.463 ± 0.081
